# Laboratory results taken from US11028180.
# T1: murine Jagged1 on 293T cells (mouse, UniProt Q9QXX0)
# T1 chain: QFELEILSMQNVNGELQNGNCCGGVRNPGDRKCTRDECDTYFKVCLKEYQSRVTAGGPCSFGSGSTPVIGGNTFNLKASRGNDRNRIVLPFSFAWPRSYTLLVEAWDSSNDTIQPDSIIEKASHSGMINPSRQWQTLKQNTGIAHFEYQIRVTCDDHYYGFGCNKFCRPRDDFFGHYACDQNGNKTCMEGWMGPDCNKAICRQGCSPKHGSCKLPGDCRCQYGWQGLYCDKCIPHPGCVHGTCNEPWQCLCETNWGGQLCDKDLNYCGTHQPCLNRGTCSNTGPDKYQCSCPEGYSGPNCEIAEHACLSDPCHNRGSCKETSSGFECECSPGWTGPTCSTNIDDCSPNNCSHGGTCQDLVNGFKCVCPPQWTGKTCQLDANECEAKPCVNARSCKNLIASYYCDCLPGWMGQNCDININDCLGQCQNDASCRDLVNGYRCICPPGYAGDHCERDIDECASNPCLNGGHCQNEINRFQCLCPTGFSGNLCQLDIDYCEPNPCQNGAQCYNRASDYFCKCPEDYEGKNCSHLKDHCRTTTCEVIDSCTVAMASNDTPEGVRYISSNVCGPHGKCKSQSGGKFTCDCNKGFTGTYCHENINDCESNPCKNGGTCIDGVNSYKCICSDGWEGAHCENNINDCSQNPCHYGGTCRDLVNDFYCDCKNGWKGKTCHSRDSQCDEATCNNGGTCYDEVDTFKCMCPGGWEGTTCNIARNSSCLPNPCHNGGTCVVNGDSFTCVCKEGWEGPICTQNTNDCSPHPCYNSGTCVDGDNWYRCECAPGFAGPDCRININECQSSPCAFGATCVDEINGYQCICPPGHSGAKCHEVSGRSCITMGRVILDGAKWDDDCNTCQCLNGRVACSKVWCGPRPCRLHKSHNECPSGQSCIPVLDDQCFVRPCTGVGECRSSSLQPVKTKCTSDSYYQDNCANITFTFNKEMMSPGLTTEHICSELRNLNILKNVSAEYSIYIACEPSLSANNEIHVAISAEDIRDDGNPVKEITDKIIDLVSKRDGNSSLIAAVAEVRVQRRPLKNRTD
# T2: murine DLL4-His (mouse, UniProt Q9JI71)
# T2 chain: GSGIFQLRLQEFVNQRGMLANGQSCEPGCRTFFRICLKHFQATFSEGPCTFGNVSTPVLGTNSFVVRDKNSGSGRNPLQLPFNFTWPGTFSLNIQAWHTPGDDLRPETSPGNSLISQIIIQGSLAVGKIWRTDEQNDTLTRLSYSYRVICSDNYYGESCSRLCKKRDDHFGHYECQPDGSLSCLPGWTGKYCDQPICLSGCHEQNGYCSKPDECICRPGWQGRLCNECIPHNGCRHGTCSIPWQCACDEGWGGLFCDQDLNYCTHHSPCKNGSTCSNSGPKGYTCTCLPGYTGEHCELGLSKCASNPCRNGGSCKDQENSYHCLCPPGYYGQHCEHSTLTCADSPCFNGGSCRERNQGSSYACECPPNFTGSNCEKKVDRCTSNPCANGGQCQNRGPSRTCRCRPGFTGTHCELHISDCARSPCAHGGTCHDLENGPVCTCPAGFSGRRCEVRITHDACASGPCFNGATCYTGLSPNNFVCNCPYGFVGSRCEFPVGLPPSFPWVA
# Key:
# [1] = target: human Jagged1 ECD-His (Met1-Ser1046) (human, UniProt P78504); experiment: BLI
# Sequence of human Jagged1 ECD-His (Met1-Ser1046) (P78504 1-1046): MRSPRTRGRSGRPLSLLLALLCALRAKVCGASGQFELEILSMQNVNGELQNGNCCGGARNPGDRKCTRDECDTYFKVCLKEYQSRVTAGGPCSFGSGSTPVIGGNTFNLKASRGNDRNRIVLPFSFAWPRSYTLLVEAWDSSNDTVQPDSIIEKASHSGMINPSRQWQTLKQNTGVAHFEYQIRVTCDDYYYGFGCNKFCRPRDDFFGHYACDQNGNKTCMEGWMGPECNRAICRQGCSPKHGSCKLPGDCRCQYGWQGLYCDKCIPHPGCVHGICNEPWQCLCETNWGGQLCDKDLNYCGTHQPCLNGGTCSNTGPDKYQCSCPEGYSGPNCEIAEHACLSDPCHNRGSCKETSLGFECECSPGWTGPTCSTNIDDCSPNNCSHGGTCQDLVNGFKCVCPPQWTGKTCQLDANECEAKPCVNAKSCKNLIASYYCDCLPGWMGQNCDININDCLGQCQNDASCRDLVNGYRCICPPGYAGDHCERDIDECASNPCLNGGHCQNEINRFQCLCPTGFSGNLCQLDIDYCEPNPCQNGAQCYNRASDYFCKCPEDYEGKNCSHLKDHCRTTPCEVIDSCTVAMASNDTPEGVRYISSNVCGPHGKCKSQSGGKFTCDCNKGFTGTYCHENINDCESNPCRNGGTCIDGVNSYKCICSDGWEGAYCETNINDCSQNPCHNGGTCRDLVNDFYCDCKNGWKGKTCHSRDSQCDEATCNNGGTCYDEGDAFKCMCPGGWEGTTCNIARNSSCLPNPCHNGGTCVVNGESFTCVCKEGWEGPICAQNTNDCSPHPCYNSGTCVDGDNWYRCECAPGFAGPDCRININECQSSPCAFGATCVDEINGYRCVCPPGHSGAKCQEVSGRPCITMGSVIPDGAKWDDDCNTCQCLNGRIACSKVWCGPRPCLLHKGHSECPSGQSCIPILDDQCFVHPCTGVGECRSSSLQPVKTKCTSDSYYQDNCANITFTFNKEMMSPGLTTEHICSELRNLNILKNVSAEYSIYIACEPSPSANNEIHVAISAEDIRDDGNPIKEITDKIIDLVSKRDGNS
# [2] = target: T3, human Jagged1 on 293/293T cells (human, UniProt P78504); experiment: FACS
# [3] = target: rat Jagged1 on 293T cells (rat, UniProt Q63722); experiment: FACS
# [4] = target: T1, murine Jagged1 on 293T cells; experiment: FACS
# [5] = target: murine Jagged2-Fc (mouse, UniProt Q9QYE5); experiment: ELISA
# Sequence of murine Jagged2-Fc (Q9QYE5 24-1082): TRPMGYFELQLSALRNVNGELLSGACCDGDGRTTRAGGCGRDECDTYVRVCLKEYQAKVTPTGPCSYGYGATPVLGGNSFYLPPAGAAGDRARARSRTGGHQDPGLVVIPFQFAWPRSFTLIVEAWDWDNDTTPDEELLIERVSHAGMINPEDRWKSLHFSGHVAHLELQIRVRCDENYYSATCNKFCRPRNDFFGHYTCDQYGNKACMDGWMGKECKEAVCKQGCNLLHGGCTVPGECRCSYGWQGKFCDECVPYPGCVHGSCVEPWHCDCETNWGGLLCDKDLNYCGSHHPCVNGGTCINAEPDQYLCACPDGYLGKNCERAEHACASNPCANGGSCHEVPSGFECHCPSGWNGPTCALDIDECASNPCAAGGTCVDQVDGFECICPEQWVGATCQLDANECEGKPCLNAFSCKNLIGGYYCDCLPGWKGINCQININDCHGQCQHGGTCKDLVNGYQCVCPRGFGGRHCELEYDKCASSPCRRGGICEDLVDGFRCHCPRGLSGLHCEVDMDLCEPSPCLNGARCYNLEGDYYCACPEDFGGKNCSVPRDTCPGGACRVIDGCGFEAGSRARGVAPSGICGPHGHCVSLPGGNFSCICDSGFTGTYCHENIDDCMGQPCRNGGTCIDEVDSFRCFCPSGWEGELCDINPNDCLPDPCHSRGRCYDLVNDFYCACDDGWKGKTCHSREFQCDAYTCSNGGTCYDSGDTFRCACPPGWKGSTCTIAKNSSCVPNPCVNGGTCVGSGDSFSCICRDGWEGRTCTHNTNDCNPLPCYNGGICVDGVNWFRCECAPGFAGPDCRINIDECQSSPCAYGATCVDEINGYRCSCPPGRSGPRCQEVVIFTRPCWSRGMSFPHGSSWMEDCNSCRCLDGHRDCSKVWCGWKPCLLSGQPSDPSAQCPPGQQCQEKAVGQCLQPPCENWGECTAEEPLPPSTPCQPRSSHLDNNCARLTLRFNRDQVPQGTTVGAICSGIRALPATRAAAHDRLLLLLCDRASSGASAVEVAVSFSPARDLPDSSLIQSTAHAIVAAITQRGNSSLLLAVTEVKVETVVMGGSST
# [6] = target: human Jagged1-His (human, UniProt P78504); experiment: ELISA
# [7] = target: T2, murine DLL4-His; experiment: ELISA
# [8] = target: human Jagged2-Fc (human, UniProt Q9Y219); experiment: ELISA
# Sequence of human Jagged2-Fc (Q9Y219 24-1080): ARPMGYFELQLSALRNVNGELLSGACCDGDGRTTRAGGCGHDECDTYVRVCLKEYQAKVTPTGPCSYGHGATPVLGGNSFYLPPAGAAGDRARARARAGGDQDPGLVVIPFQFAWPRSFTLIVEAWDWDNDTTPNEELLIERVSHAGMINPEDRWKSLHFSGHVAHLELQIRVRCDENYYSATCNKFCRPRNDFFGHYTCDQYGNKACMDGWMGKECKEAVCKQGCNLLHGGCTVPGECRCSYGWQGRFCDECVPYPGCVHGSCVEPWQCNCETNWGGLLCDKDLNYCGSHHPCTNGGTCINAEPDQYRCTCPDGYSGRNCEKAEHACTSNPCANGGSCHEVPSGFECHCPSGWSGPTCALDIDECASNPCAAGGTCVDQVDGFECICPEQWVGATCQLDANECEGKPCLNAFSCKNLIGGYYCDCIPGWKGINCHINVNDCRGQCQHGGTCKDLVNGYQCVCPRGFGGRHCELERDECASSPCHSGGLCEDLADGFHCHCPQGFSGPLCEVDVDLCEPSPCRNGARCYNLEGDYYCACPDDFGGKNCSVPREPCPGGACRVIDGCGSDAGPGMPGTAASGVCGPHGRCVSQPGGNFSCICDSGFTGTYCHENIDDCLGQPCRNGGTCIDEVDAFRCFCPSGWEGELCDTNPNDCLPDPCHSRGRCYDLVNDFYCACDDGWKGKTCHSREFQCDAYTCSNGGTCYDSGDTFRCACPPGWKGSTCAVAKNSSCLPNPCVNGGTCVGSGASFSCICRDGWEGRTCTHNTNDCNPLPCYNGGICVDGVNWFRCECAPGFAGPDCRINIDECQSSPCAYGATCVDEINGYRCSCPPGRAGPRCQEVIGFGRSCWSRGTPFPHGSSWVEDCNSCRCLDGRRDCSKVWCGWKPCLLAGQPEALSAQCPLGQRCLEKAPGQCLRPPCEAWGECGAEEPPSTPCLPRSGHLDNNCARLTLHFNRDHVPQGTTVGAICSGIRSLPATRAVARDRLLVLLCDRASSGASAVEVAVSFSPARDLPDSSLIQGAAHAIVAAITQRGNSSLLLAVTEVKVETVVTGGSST
# [9] = target: human DLL4-His (human, UniProt Q9NR61); experiment: ELISA
# Sequence of human DLL4-His (Q9NR61 27-529): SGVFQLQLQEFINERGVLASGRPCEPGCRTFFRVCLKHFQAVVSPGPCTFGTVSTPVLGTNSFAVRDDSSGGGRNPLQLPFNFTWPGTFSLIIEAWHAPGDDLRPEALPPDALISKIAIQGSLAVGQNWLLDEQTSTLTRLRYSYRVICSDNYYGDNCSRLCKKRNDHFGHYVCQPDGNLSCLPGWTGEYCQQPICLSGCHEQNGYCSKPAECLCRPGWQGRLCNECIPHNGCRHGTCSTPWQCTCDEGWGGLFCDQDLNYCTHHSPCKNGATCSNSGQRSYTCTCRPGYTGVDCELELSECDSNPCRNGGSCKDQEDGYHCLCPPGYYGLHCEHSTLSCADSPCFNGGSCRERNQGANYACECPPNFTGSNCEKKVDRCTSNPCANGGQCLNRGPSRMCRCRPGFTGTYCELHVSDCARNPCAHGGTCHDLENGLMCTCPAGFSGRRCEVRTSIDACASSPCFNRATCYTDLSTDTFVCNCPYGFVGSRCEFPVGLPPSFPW
# [10] = target: murine DLL1-His (mouse, UniProt Q61483); experiment: ELISA
# Sequence of murine DLL1-His (Q61483 18-545): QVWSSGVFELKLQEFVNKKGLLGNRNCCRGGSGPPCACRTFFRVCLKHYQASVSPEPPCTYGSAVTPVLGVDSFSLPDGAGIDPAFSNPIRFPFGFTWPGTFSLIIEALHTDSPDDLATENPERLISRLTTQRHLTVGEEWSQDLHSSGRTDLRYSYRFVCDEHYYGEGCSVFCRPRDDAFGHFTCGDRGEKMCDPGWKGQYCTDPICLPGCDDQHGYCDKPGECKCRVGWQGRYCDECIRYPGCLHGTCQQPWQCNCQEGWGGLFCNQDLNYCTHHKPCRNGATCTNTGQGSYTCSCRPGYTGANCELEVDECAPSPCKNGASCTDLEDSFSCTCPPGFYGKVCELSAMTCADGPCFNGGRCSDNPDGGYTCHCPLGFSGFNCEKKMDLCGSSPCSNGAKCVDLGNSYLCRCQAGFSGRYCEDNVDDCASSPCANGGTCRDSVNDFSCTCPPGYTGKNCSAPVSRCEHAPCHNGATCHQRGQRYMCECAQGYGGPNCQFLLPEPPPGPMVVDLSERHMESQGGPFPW
# [11] = target: human Jagged1-Fc (human, UniProt P78504); experiment: ELISA
# [12] = target: rat Jagged1-Fc (rat, UniProt Q63722); experiment: ELISA
# [13] = target: T3, human Jagged1 on 293/293T cells; experiment: KinExA, on-cell
binder,measurement,setting,value
"15D11.1 (antibody, V domains shown) VH: QVTLKESGPVLVKPTETLTLTCTVSGFSLSNAEMGVSWIRQPPGKALEWLAHLFSNDEKSYSTSLKSRLTISKDTSKSQVVLTMTDLDPVDTATYYCARSFNWNYDFDYWGQGTLVTVSS VL: QSALTQPASVSGSPGQSITISCTGTSSAVGGHNFVSWYQQYPGKAPKLMIYEVSNRPSGVSTRFSGSKSGNTASLTISGLQAEDEADYYCSSYTSSSTWVFGGGTRLTVL",Kd,[1],0.614 nM
same,EC50,[2],0.29 nM
same,EC50,[3],0.25 nM
same,EC50,[4],0.36 nM
same,binding result,[5],no binding
same,EC50,[6],0.39 nM
same,binding result,[7],no binding
same,binding result,[8],no binding
same,binding result,[9],no binding
same,binding result,[10],no binding
same,EC50,[11],0.8 nM
same,EC50,[12],0.51 nM
same,Kd,[13],0.125 nM
